“And” between values parts separate entries of the source, which are not always exact repeats. Equal values may be shown once.
What was measured:
[1] = Fluorescence recovery after photobleaching (FRAP); settings: one-phase association fit
Experimental: Protein fibrils are capable of blue autofluorescence as a result of protein self-assembly. Fluorescent recovery after photobleaching (FRAP) is measured by photobleaching using a 405 nm laser and measuring the spot intensity over time. This behavior was previously confirmed in the Q protein in a recent characterization. Using the correlation between autofluorescence and fibrilization, the relative autofluorescence of the coiled-coil protein hydrogels was measured. […] To assess the relative laser response, hydrogels were subjected to FRAP imaging using two 100% intensity bleaches at 405 nm excitation followed by imaging at 2 second frame intervals (FIG. 53c).
Confocal Imaging and Fluorescence Recovery After Photobleaching (FRAP). FRAP experiments were performed with a Stellaris 8 Falcon laser scanning confocal microscope on an inverted DMi8 CS stand equipped with 63X NA 1.4 lens. Images were taken with a laser at 405 nm excitation. A pre-bleach image was taken followed by two bleach images using 100% laser intensity for 1.5 s. Following, 41 images were taken post-bleach at 2 s intervals. To measure recovery, FIJI (version 2.3.0) was used to automate background and recovery imaging following photobleaching. Independent background intensities were fit to a one-phase decay equation in GraphPad Prism. Background loss, as a result of photobleaching, from fit values were added to spot intensity values before being fit to a one-phase association equation in GraphPad Prism.

[2] = Tube inversion concentration-temperature phase diagram; assay type: physicochemical; settings: for solubility limit: 50 mM Tris, 500 mM NaCl, pH 8.0; for UCST: at solubility limit, extent of gelation η 0.5
Experimental: Tube Inversion Test. Immediately after concentration to 2 mM, the protein was incubated at 4° C. over the course of two weeks after aliquoting 150 μL into a 2 mL Eppendorf tube. The samples were visually assessed for gelation by inverting the tubes at 12-hour time intervals thereafter, with gelled samples not flowing upon inversion.
Gelation. To study the relative gelation of Q2 as compared to the previously reported coiled-coil hydrogel, Q, protein was successfully expressed (FIG. 24), purified (FIG. 25), and concentrated to 2 mM (1% w/v) in Tris buffer (50 mM Tris, 500 mM NaCl) at pH 8.0. Purity of the protein was measured to be >99% by SDS-PAGE (FIG. 26) and concentration was measured by BCA assay. Immediately following concentration, the gelation process of Q2 was studied using the microrheology assay described previously following incubation at 4° C. Separately, 150 μL samples were aliquoted for tube inversion tests performed after 2 weeks of incubation for visual assessment of gelation over time at 4° C. (FIG. 19a-d) and at concentrations from 1 mM to 3.5 mM with temperatures 5° C. to 25° C. using 0.5 mM and 5° C. step sizes, respectively, to create a matrix-based phase diagram (FIG. 19e). Temperature and concentration ranges were selected based on preliminary tube-inversion testing at high and low ends of the ranges.
Thermoresponsiveness and material strength. UCST behavior of protein hydrogels was assessed by testing […] samples via tube inversion in 2 mL microtubes after incubation for two weeks at various temperatures and concentrations. Temperature conditions were modulated in the range of 5-40° C. The concentration range was modified depending on if precipitation was visually noticeable in the microtube at an earlier concentration, indicating a solubility limit to our phase diagram, as has been done previously. […] As done with Q2, the UCST of the hydrogels was determined using a bivariate linear relationship for the extent of gelation where tubes that passed gelation by tube inversion were assigned a value of 1 (shown in black in FIG. 52a and FIG. 64a-d) and tubes that failed gelation by tube inversion (shown in red in FIG. 52a and FIG. 64a-d) were assigned a value of 0. The heatmap in FIG. 52a and FIG. 64a-d was used to denote the range of extent of gelation where the equation was employed to solve for the UCST using the solubility limit and solving for an extent of gelation, η, value of 0.5. The UCSTs (FIG. 52b) for the hydrogels studied here were 13.0° C., 35.9° C., 33.6° C., 17.5° C., and 22.9° C. for Q3-7, respectively, as compared to 17.0° C. for Q and 22.0° C. for Q2 found previously. Bivariate regression allowed for solving the coefficients for the dependence of temperature and concentration on gelation.
Tube Inversion. Binary sol-gel behavior was assessed using tube inversion. Immediately after concentration to 2 mM, 150 μL of Q hydrogel variants were incubated in 2 mL microtubes at 4° C. for two weeks. Gelation was visually observed by inverting the microtube and inspecting the sample for flow from the top of tube.

[3] = TEM of hydrogel nanofibers; assay type: physicochemical; settings: gel after incubation at 4 °C
Experimental: Transmission Electron Microscopy. Transmission electron microscopy (TEM) images were taken with a FEI Talos L120C transmission electron microscope. The supramolecular assembly of Q2 and Q were monitored over the course of 60 and 144 hours, respectively (in correspondence with tube inversion and microrheology). TEM images were taken of the gel at times consistent with when microrheological measurements for Q2 for consistent fibril sizing. Samples were diluted to 50 μM and 3 μL was spotted on Formvar/carbon-coated copper grids followed by 5 μL wash with water, and 3 μL staining with 1% v/v uranyl acetate solution each with incubation times of 1 min. Following imaging, fibrils were sized in ImageJ software (Version 1.52q).
(§1) Transmission Electron Microscopy. Transmission electron microscopy (TEM) images were taken with a FEI Talos L120C transmission electron microscope. Samples were diluted to 50 μM and 3 μL was spotted on Formvar/carbon-coated copper grids followed by a L wash with water, and 3 μL staining with 1% v/v uranyl acetate solution each with incubation times of 1 min. Between steps, filter paper was used to gently wick the grids dry. Following imaging, minimum diameter nanofibers within the physically crosslinked hydrogel were sized in ImageJ software (Version 1.52q).

Parallel plate rheology = assay type: physicochemical; settings: 10 Hz, 5% strain
Experimental: Rheology. Mechanical integrity of the Q2 hydrogel was assessed using a stress-controlled rheometer (Discovery Hybrid Rheometer 2, TA Instruments) equipped with a parallel plate geometry. After complete gelation of a 2 mM sample at 4° C., the sample was loaded onto the 8 mm diameter lower and upper plates with a 0.2 mm geometry gap. Strain and frequency settings were informed from previous Q hydrogel studies where the storage modulus (G′) and loss modulus (G″) were measured over the frequency range 0.1-10 Hz with a 5% oscillation strain.
Rheology. Q hydrogel variants were assessed for relative mechanical integrity with a stress-controlled rheometer (Discovery Hybrid Rheometer 2, TA Instruments) equipped with a parallel plate geometry. In parallel with microrheology measurements, 100 μL of each variant was incubated at 4° C. Upon gelation as assessed by microrheology, hydrogels were loaded onto an 8 mm diameter lower and upper plate with a 0.2 mm geometry gap. Storage modulus (G′) and loss modulus (G″) were measured from 0.1-10 Hz with 5% oscillation strain.

TEM of protein fibers = assay type: physicochemical; settings: fibers
Experimental: Transmission Electron Microscopy. Transmission electron microscopy (TEM) images were taken with a FEI Talos L120C transmission electron microscope. Protein fiber samples were diluted to 50 μM and 3 μL was spotted on Formvar/carbon-coated copper grids followed by 5 μL wash with water, and 3 μL staining with 1% v/v uranyl acetate solution each with incubation times of 1 min at RT. Fibrils were sized in ImageJ software (Version 1.52q).
as §1, with “a 5 μL” for “a L”, “to” for “to gently”, “the grids.” for “the grids dry.”, “imaging, fibrils” for “imaging, minimum diameter nanofibers within the physically crosslinked hydrogel”

Row | Substance | Halftime [1] | K [1] | Tau [1] | solubility limit [2] | UCST [2] | hydrogel fibril diameter (TEM) [3] | loss modulus G″ (Parallel plate rheology) | storage modulus G′ (Parallel plate rheology) | fiber diameter, largest population of sizes (TEM of protein fibers) | average protein fiber diameter (TEM) (TEM of protein fibers; 50 mM NaH2PO4 pH 4.0)
1 | Q7: Q hydrogel variant from trimodal Monte Carlo search, SEQ ID NO: 16 (MRGSHHHHHHGSIEGRVKEMTFIKKTIEQQAEEMKEINKAIHDIRHALENISKK) [Protein Q7] | 9.7 s | 0.1 s⁻¹ | 13.9 s | 3.0 mM | 22.9 °C | 36.3±10.8 nm | 21±8 Pa and 20.6 ± 7.9 Pa | 298±62 Pa and 297.5 ± 61.7 Pa | – | –
2 | Q6: Q hydrogel variant from trimodal Monte Carlo search, SEQ ID NO: 15 (MRGSHHHHHHGSIEGRVKEITFIKKQIEQIAEEMKEINKAIHDIRHALENISKK) [Protein Q6] | 5.1 s | 0.1 s⁻¹ | 7.3 s | 3.0 mM | 17.5 °C | 39.9±16.9 nm | 13±6 Pa and 13.0 ± 5.7 Pa | 253±123 Pa and 252.9 ± 122.7 Pa | – | –
3 | Q4: Q hydrogel variant from Rosetta Monte Carlo search, SEQ ID NO: 13 (MRGSHHHHHHGSIEGRVKEITFIKKTIEQIAEEMKEINKAIHDIRHALENISKK) [Protein Q4] | 5.7 s | 0.1 s⁻¹ | 8.2 s | 4.0 mM | 35.9 °C | 27.2±8.7 nm | 15.0 ± 3.2 Pa | 70±20 Pa and 69.9 ± 19.7 Pa | – | –
4 | Q9: Monte-Carlo output sequence with increased ΔEEbcf from the Q domain; probably SEQ ID NO: 18 (MRGSHHHHHHGSIEGRVKEIKFLKNTAPQQLRELQNTNMALQDVRELLQQQSTL) [Protein Q9] | – | – | – | – | – | – | – | – | 1280±330 nm | 760±170 nm

Source: patent US20240115742A1, “FLUORINATED FIBERS FOR MULTIMODAL 1H AND 19F MRI, ULTRASOUND, FLUORESCENCE DETECTION AND CONFORMATIONAL AND TEMPERATURE DETECTION BY 19F MRS” (New York University, priority 2022, published 2024)
